Data from article PMC9321335, “Palmitic Acid-Conjugated Radiopharmaceutical for Integrin αvβ3-Targeted Radionuclide Therapy” (Pharmaceutics, 2022).
Like-named read-outs stand apart in the source and are kept apart here.

Legend:
physchem = type: physicochemical
Description: Briefly, the radiopharmaceuticals were prepared and purified with Sep-Pak-C18 cartridges and then dissolved in a mixed solution of 5 mL n-octanol and 5 mL PBS. After vortexing for 1 h, the mixture was centrifuged at 10,000 rpm for 10 min. Samples (100 μL, n = 4) from the n-octanol and PBS components were collected and counted using a γ-counter. The […] were calculated as the logarithm of the n-octanol/PBS ratio.

[1] = design: species or system KM mice; conditions: mouse, in vivo, iv
Description: (§1) Female KM mice were randomly divided into three groups (n = 5). […] Blood samples obtained from the canthus vein were collected at different time points post injection (p.i.), weighed, and evaluated using a γ-counter. The results are presented as the percentage injected activity per gram (%IA/g). Nonlinear regression (curve fit) followed by two phase decay was performed using GraphPad Prism version 9.0.0 for Windows, GraphPad Software, San Diego, CA, USA, www.graphpad.com (accessed on 22 May 2022). And then the half-lives values were calculated and determined.

[2] = cited from earlier work
From the text: This may be caused by several factors: first, palmitic acid can reversibly bind to albumin to prolong the blood retention time and reduce the elimination of peptides; second, ^177Lu-palm-3PRGD2 is amphiphilic and may self-assemble to form tiny nanoparticles (possibly nanospheres or nanofibers) with larger molecular sizes, resulting in lo ...

in vivo = conditions: C57BL/6, mouse, 0.74 MBq, total radioactivity
Description: (§2) Mice bearing MC38 xenografts were randomly divided into 10 groups (n = 4). The mice in five groups were administered 0.74 MBq/20 µCi of ^177Lu-Palm-3PRGD2 and sacrificed at 1, 4, 12, 24, and 72 h p.i. The mice on one group was injected with 0.74 MBq/20 µCi of ^177Lu-Palm-3PRGD2 and 500 μg (242 nmol) 3PRGD2 as a blocking agent and sacrificed at 1 h p.i. […] Tumors and major organs were harvested, weighed and measured for radioactivity using a γ-counter. The organ uptake was calculated as the percentage injected activity per gram (%IA/g). The effective absorbed dose in humans estimated from mouse biodistribution data by using a dedicated software (OLINDA 1.0).

[3] = design: species or system C57BL/6 mice; conditions: mouse, in vivo
Description: as §1, with “determined. Blood clearance studies were performed in normal KM mice. […] Blood clearance studies were also performed in C57BL/6 mice.” for “determined.”

MC38 tumor-bearing mice = test: in vivo; conditions: mouse
Description: as §2

[4] = reportedly; cited from earlier work
From the text: Albumin makes up approximately 55–60% of serum proteins, and its biological half-life is reportedly 19 days, which makes it possible to leverage the long circulation half-life of albumin to produce long-acting therapeutics.

[5] = Tumor-to-tissue ratio, Intestine

Question: For `N=C(N)NCCC[C@@H]1NC(=O)[C@H](CCCCNC(=O)CCOCCOCCOCCOCCNC(=O)CC[C@H](NC(=O)CCOCCOCCOCCOCCNC(=O)CN2CCN(CC(=O)O)CCN(CC(=O)O)CCN(CC(=O)O)CC2)C(=O)NCCOCCOCCOCCOCCC(=O)NCCCC[C@@H]2NC(=O)[C@@H](Cc3ccccc3)NC(=O)[C@H](CC(=O)O)NC(=O)CNC(=O)[C@H](CCCNC(=N)N)NC2=O)NC(=O)[C@@H](Cc2ccccc2)NC(=O)[C@H](CC(=O)O)NC(=O)CNC1=O` [^177Lu-3PRGD2, [^177Lu]Lu-DOTA-3PRGD2, metal not drawn], which logD (physchem) is on record?
Answer: -4.05 ± 0.14

Question: And the “Half-Life (T1/2α)” value [1]?
Answer: 1.94 min

Question: And the “Half-Life (T1/2β)” value [1]?
Answer: 11.81 min

Question: What about the Effective absorbed dose [2] of the same compound?
Answer: 1.35 × 10^−2 mSv/MBq

Question: What about the tissue uptake at 4 h (in vivo; Blood uptake) of the same compound?
Answer: 0.42 ± 0.26 %ID/g

Question: And the tissue uptake at 12 h (in vivo; Blood uptake)?
Answer: 0.32 %ID/g

Question: What about the tissue uptake at 4 h (in vivo; Bone uptake) of the same compound?
Answer: 1.41 %ID/g

Question: What about the tissue uptake at 12 h (in vivo; Bone uptake) of the same compound?
Answer: 1.46 %ID/g

Question: What about the tissue uptake at 4 h (in vivo; Brain uptake) of the same compound?
Answer: 0.09 %ID/g

Question: And the tissue uptake at 12 h (in vivo; Brain uptake)?
Answer: 0.11 %ID/g

Question: And the tissue uptake at 4 h (in vivo; Heart uptake)?
Answer: 0.75 %ID/g

Question: What about the tissue uptake at 12 h (in vivo; Heart uptake) of the same compound?
Answer: 0.63 %ID/g

Question: And the tissue uptake at 4 h (in vivo; Intestine uptake)?
Answer: 9.85 %ID/g

Question: And the tissue uptake at 12 h (in vivo; Intestine uptake)?
Answer: 7.97 %ID/g

Question: And the tissue uptake at 12 h (in vivo; Kidney uptake)?
Answer: 4.48 %ID/g

Question: And the tissue uptake at 4 h (in vivo; Liver uptake)?
Answer: 2.95 %ID/g

Question: And the tissue uptake at 12 h (in vivo; Liver uptake)?
Answer: 1.93 %ID/g

Question: And the tissue uptake at 4 h (in vivo; Lung uptake)?
Answer: 1.73 %ID/g

Question: What about the tissue uptake at 12 h (in vivo; Lung uptake) of the same compound?
Answer: 1.46 %ID/g

Question: And the tissue uptake at 4 h (in vivo; Muscle uptake)?
Answer: 0.52 %ID/g

Question: And the tissue uptake at 12 h (in vivo; Muscle uptake)?
Answer: 0.64 %ID/g

Question: And the tissue uptake at 4 h (in vivo; Spleen uptake)?
Answer: 2.65 %ID/g

Question: What about the tissue uptake at 12 h (in vivo; Spleen uptake) of the same compound?
Answer: 1.89 %ID/g

Question: What about the tissue uptake at 4 h (in vivo; Stomach uptake) of the same compound?
Answer: 2.96 %ID/g

Question: And the tissue uptake at 12 h (in vivo; Stomach uptake)?
Answer: 2.39 %ID/g

Question: And the tissue uptake at 4 h (in vivo; Tumor uptake)?
Answer: 6.22 %ID/g

Question: And the tissue uptake at 12 h (in vivo; Tumor uptake)?
Answer: 4.11 %ID/g

Question: And the tissue to tissue ratio at 4 h (in vivo; Tumor-to-tissue ratio, Blood)?
Answer: 20.3

Question: What about the tissue to tissue ratio at 12 h (in vivo; Tumor-to-tissue ratio, Blood) of the same compound?
Answer: 14.2

Question: What about the tissue to tissue ratio at 4 h (in vivo; Tumor-to-tissue ratio, Bone) of the same compound?
Answer: 4.41

Question: And the tissue to tissue ratio at 12 h (in vivo; Tumor-to-tissue ratio, Bone)?
Answer: 2.82

Question: And the tissue to tissue ratio at 4 h (in vivo; Tumor-to-tissue ratio, Brain)?
Answer: 68.7

Question: What about the tissue to tissue ratio at 12 h (in vivo; Tumor-to-tissue ratio, Brain) of the same compound?
Answer: 39.9

Question: What about the tissue to tissue ratio at 4 h (in vivo; Tumor-to-tissue ratio, Heart) of the same compound?
Answer: 8.31

Question: What about the tissue to tissue ratio at 12 h (in vivo; Tumor-to-tissue ratio, Heart) of the same compound?
Answer: 6.53

Question: What about the tissue to tissue ratio at 4 h (in vivo; [5]) of the same compound?
Answer: 0.66

Question: What about the tissue to tissue ratio at 12 h (in vivo; [5]) of the same compound?
Answer: 0.52

Question: What about the tissue to tissue ratio at 4 h (in vivo; Tumor-to-tissue ratio, Liver) of the same compound?
Answer: 2.11

Question: What about the tissue to tissue ratio at 12 h (in vivo; Tumor-to-tissue ratio, Liver) of the same compound?
Answer: 2.13

Question: What about the tissue to tissue ratio at 4 h (in vivo; Tumor-to-tissue ratio, Lung) of the same compound?
Answer: 3.6

Question: What about the tissue to tissue ratio at 12 h (in vivo; Tumor-to-tissue ratio, Lung) of the same compound?
Answer: 2.84

Question: And the tissue to tissue ratio at 4 h (in vivo; Tumor-to-tissue ratio, Muscle)?
Answer: 12

Question: And the tissue to tissue ratio at 12 h (in vivo; Tumor-to-tissue ratio, Muscle)?
Answer: 6.6

Question: And the tissue to tissue ratio at 4 h (in vivo; Tumor-to-tissue ratio, Spleen)?
Answer: 2.36

Question: What about the tissue to tissue ratio at 12 h (in vivo; Tumor-to-tissue ratio, Spleen) of the same compound?
Answer: 2.22

Question: And the tissue to tissue ratio at 4 h (in vivo; Tumor-to-tissue ratio, Stomach)?
Answer: 2.1

Question: And the tissue to tissue ratio at 12 h (in vivo; Tumor-to-tissue ratio, Stomach)?
Answer: 1.72

Question: And the tissue to tissue ratio at 4 h (in vivo; in vivo)?
Answer: 1.27

Question: And the tissue to tissue ratio at 12 h (in vivo; in vivo)?
Answer: 0.92

Question: What about the “Half-Life (T1/2α)” value [3] of the same compound?
Answer: 1.06 min

Question: And the “Half-Life (T1/2β)” value [3]?
Answer: 14.54 min

Question: For `CCCCCCCCCCCCCCCC(=O)N[C@@H](CCC(=O)NCCCC[C@H](NC(=O)CN1CCN(CC(=O)O)CCN(CC(=O)O)CCN(CC(=O)O)CC1)C(=O)O)C(=O)O` [^177Lu-Palm, [^177Lu]Lu-DOTA-Palm, metal not drawn], which “Half-Life (T1/2α)” value [1] is on record?
Answer: 3.33 min

Question: And the “Half-Life (T1/2β)” value [1]?
Answer: 29.82 min

Question: And the “Tumor-to-tissue ratio, Brain” value (MC38 tumor-bearing mice)?
Answer: 14.69

Question: For Albumin, which Biological half-life [4] is on record?
Answer: 19 days
